Entries after “also recorded” stand apart in the source; their conditions may differ.
Legend:
Rat αvβ3 = target: T1, Rat αvβ3 (Rattus norvegicus, UniProt Q8R2H2); assay: Flow cytometric analysis of antibody binding to cell lines; settings: Rat RG2 glioma; 5×10^5 cells, 0.5 μg antibody; vs isotype matched control antibody
T1 construct: endogenous in cells; host or cells: RG2 glioma
T1 sequence (Q8R2H2 26-787): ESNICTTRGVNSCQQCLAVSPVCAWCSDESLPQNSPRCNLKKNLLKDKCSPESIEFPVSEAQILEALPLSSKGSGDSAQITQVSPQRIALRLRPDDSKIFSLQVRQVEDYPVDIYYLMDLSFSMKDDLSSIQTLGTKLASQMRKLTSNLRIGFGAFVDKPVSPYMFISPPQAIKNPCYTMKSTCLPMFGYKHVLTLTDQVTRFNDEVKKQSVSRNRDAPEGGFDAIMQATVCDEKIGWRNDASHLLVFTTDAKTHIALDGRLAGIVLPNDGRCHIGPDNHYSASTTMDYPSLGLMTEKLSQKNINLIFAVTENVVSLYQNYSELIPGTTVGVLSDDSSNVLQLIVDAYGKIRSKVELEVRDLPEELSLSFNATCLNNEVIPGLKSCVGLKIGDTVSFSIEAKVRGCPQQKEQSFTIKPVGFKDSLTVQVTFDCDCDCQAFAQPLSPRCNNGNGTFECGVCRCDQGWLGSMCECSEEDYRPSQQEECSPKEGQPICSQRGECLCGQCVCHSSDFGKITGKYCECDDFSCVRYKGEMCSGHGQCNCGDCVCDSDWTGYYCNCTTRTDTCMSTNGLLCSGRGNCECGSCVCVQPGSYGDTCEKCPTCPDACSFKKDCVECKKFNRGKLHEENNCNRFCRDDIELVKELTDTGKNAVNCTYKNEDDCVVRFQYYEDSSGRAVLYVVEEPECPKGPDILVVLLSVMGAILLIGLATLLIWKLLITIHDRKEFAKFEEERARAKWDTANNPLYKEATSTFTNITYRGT
Method: (§1) FIG. 2. Flow cytometric analysis of antibody binding to tumor cell lines. […] Rat αvβ3 was not recognized by any of the three antibodies but was detected by the anti-rat αvβ3 control antibody.
(§2) Cells (5×10^5) were incubated with 0.5 μg of antibody and bound antibody was detected with a phycoerythrin-labeled secondary antibody. Mean channel fluorescence results are expressed as fold increase over an isotype matched control antibody. The mouse anti-rat β3 antibody F11 was included for as a positive control for the rat cell line RG2. HMVEC, human microvascular endothelial cells; ND, not done.

hamster αvβ3 = assay: as above
Method: as §1, §2

human αvβ3 = target: T2, human αvβ3 (Homo sapiens, UniProt P05106); assay: as above; settings: for Fold Increase Over Control (mean channel fluorescence): 5×10^5 cells, 0.5 μg antibody, vs isotype matched control antibody
T2 construct: endogenous in cells; host or cells: M21 melanoma, HMVEC, HUVEC
T2 sequence (P05106 27-788): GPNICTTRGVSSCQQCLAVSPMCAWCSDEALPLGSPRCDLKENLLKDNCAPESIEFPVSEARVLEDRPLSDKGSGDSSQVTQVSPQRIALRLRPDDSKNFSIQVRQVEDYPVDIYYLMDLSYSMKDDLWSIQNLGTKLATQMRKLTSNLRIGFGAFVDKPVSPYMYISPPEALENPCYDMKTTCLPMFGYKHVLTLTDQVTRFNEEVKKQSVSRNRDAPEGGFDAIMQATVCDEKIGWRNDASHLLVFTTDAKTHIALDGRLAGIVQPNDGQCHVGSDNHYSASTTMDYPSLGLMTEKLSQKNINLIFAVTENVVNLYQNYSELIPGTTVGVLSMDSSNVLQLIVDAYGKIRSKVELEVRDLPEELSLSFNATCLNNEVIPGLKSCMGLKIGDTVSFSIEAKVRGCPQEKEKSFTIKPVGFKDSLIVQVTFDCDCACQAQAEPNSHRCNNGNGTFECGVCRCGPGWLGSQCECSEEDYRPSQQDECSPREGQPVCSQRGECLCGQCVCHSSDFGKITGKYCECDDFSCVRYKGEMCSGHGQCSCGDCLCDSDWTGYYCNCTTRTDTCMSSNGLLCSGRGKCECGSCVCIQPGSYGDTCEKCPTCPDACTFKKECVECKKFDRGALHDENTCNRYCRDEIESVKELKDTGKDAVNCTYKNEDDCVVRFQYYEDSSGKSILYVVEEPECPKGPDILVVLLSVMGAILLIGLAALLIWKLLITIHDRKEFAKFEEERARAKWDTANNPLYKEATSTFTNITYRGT
T2 sequence (P06756 31-889 partner limits assumed): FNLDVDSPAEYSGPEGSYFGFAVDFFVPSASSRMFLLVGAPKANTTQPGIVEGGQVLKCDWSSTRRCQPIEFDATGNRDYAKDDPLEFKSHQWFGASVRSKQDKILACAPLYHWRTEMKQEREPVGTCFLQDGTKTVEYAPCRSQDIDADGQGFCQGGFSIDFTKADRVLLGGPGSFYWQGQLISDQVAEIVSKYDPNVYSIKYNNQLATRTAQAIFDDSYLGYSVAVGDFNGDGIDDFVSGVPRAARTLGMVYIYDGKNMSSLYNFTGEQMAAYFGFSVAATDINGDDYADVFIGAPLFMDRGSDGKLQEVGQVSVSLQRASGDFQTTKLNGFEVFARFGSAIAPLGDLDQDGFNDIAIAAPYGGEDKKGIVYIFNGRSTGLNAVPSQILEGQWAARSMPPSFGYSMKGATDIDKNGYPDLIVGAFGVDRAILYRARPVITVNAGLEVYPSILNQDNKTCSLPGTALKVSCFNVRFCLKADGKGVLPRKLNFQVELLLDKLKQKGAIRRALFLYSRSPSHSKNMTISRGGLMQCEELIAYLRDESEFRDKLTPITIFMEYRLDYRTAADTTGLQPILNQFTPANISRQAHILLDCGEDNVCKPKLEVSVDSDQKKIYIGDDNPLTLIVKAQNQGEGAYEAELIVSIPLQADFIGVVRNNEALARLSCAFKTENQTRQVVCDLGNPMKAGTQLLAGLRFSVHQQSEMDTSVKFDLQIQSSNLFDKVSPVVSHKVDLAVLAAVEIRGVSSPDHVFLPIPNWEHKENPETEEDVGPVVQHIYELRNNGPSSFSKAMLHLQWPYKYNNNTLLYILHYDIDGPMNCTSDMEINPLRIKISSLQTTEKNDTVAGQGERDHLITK
T2 sequence (P06756 891-1048 partner limits assumed): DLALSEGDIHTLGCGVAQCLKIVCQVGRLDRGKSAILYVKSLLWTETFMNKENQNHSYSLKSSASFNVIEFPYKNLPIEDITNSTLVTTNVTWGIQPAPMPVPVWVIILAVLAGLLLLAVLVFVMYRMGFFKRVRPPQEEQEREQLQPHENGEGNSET
Method: as §1, §2

[1] = target: T3, αvβ3 expressed on placenta (placental trophoblasts) (Rattus norvegicus, UniProt Q8R2H2); assay: Immunohistochemical staining of placental trophoblasts; format: binding; settings: frozen thin sections, antibody 10 μg/ml
T3 construct: from tissue; host or cells: placenta (frozen sections)
T3 sequence (Q8R2H2 26-787): T1 sequence (Q8R2H2 26-787)
Method: (§3) Table 3. Immunohistochemical staining of placental trophoblasts. Placental tissue, a rich source of αvβ3, was collected either immediately after parturition or from freshly-sacrificed, late-term pregnant animals. Tissue fragments, approximately 1 cm^3, were frozen in OCT, and thin sections were stained with monoclonal antibodies (10 μg/ml) at Sierra Biomedical (Sparks, Nev.). Vitaxin® recognized αvβ3 expressed on human, monkey, guinea pig, hamster and rabbit placenta, while […] with human and monkey αvβ3. […] ND, not done.

[2] = test system: αvβ3 expressed on placenta (placental trophoblasts); assay: as above; format: binding; settings: frozen thin sections, antibody 10 μg/ml
Method: as §3

[3] = target: T4, αvβ3 expressed on placenta (placental trophoblasts) (Homo sapiens, UniProt P05106); assay: as above; format: binding; settings: frozen thin sections, antibody 10 μg/ml
T4 construct: from tissue; host or cells: placenta (frozen sections)
T4 sequence (P05106 27-788): as the sequence (P05106 27-788) above
T4 sequence (P06756 31-889 partner limits assumed): as the sequence (P06756 31-889 partner limits assumed) above
T4 sequence (P06756 891-1048 partner limits assumed): as the sequence (P06756 891-1048 partner limits assumed) above
Method: as §3

[4] = flow cytometry, tumor cell lines, FIG. 2

B1: Vitaxin®: humanized blocking monoclonal antibody that binds Integrin αVβ3 (MEDI-522, MedImmune); humanized and optimized version of LM609 (antibody, chains of the INN, looked up, V domains shown)
VH: QVQLVESGGGVVQPGRSLRLSCAASGFTFSSYDMSWVRQAPGKGLEWVAKVSSGGGSTYYLDTVQGRFTISRDNSKNTLYLQMNSLRAEDTAVYYCARHLHGSFASWGQGTTVTVSS
VL: EIVLTQSPATLSLSPGERATLSCQASQSISNFLHWYQQRPGQAPRLLIRYRSQSISGIPARFSGSGSGTDFTLTISSLEPEDFAVYYCQQSGSWPLTFGGGTKVEIK
Fold Increase Over Control (mean channel fluorescence) (Rat αvβ3): 0.95 fold
Fold Increase Over Control (mean channel fluorescence) (hamster αvβ3; Hamster CCL-49 melanoma, 5×10^5 cells, 0.5 μg antibody, vs isotype matched control antibody): 12 fold
binding to hamster αvβ3 (in words) (hamster αvβ3; [4]): recognized; also recorded: capable of binding
Fold Increase Over Control (mean channel fluorescence) (human αvβ3; Human HMVEC endothelial): 8.9 fold
Fold Increase Over Control (mean channel fluorescence) (human αvβ3; Human M21 melanoma): 73 fold
binding to human αvβ3 (in words) (human αvβ3; [4]): recognized; also recorded: capable of binding
Staining of Placental Trophoblasts [1]: Negative
Staining of Placental Trophoblasts ([2]; Cynomolgus monkey placenta): recognized
Staining of Placental Trophoblasts ([2]; Guinea pig placenta): recognized
Staining of Placental Trophoblasts ([2]; Hamster placenta): recognized
Staining of Placental Trophoblasts ([2]; Rabbit placenta): recognized
Staining of Placental Trophoblasts [3]: recognized

Reference: US20040001835A1, “Prevention or treatment of cancer using integrin alphavbeta3 antagonists in combination with other agents” (MedImmune, Inc., priority 2002, published 2004)
